# Data taken from doi:10.1101/2020.12.08.415398 (bioRxiv, 2020).
# Where two headings read alike, the source gives them in different places.
# T1: GPR133 (ADGRD1) C-terminal fragment (CTF) with C-terminal TwinStrep tag, from C-terminally tagged wild-type … (human)
# T1 chain: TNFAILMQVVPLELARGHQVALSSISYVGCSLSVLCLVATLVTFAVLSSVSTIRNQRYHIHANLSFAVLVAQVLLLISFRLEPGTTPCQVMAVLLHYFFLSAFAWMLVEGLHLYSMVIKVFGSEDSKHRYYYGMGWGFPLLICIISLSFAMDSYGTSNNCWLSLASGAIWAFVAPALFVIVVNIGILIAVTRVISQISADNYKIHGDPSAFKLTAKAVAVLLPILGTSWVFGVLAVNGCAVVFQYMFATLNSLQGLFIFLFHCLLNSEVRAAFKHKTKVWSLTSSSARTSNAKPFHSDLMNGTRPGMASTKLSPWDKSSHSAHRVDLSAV
# B1: GPR133 (ADGRD1) N-terminal fragment (NTF), from C-terminally TwinStrep-tagged wild-type GPR133 (domain or fragment, human)
# chain: VYSRSQDHPGFQVLASASHYWPLENVDGIHELQDTTGDIVEGKVNKGIYLKEEKGVTLLYYGRYNSSCISKPEQCGPEGVTFSFFWKTQGEQSRPIPSAYGGQVISNGFKVCSSGGRGSVELYTRDNSMTWEASFSPPGPYWTHVLFTWKSKEGLKVYVNGTLSTSDPSGKVSRDYGESNVNLVIGSEQDQAKCYENGAFDEFIIWERALTPDEIAMYFTAAIGKHALLSSTLPSLFMTSTASPVMPTDAYHPIITNLTEERKTFQSPGVILSYLQNVSLSLPSKSLSEQTALNLTKTFLKAVGEILLLPGWIALSEDSAVVLSLIDTIDTVMGHVSSNLHGSTPQVTVEGSSAMAEFSVAKILPKTVNSSHYRFPAHGQSFIQIPHEAFHRHAWSTVVGLLYHSMHYYLNNIWPAHTKIAEAMHHQDCLLFATSHLISLEVSPPPTLSQNLSGSPLITVHLKHRLTRKQHSEATNSSNRVFVYCAFLDFSSGEGVWSNHGCALTRGNLTYSVCRCTHL
# modifications: glycosylated (nine N-linked glycosylation sites predicted within the NTF; positions not given)
# Tests used:
# [1] = target: T1, GPR133 (ADGRD1) C-terminal fragment …; test: pull-down
# [2] = target: T1, GPR133 (ADGRD1) C-terminal fragment …; test: pull-down
binder,measurement,setting,value
B1,NTF/CTF ratio in the elution (densitometry),[1],1
same,NTF/CTF ratio in the elution (densitometry),[2],0.17
